In general, EC50 refers to the concentration that produces a half-maximal response.

Test [1] addresses T1, human PMEL (Homo sapiens, UniProt P40967).
T1 sequence (P40967 25-661): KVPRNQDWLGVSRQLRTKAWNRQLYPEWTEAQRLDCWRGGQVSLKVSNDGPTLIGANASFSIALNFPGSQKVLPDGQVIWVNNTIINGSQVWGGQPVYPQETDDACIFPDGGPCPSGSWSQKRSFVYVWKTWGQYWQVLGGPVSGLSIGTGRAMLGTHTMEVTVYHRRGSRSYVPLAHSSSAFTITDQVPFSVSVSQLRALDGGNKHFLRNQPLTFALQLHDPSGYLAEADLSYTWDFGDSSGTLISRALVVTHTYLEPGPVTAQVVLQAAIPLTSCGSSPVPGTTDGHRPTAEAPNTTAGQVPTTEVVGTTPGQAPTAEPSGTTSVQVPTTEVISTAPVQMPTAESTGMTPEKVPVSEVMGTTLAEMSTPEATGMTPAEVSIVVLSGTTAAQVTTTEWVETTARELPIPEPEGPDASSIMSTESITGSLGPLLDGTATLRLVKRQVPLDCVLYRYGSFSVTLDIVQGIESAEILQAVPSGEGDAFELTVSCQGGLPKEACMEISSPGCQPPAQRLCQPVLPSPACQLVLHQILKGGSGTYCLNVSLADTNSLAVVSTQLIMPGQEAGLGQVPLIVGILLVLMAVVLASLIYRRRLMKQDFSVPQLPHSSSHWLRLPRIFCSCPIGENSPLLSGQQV
Put plainly: SPR epitope binning (competitive binding assay, Biacore T200). To be noted: FIG. 20B-20C. The text has this:
SPR was used to assess epitope binning for anti-PMEL antibodies on a T200 Biacore instrument (catalog #28975001, GE Healthcare Life Sciences).
Surface Plasmon Resonance (SPR) is a technique to measure bimolecular interactions in real-time in a label free environment. Molecules are immobilized on a sensor surface over which a sample solution flows. The interaction between the immobilized molecule and the flowing sample causes a refractive index change. The refractive index change is an altering of the angle at which reduced intensity polarized light is reflected from the supporting glass plane. This angle change is caused by binding or dissociation of molecules from the sensor surface and is proportional to the mass of bound material and is recorded by the instrument in a sensorgram. […] From the association and dissociation event responses, an association rate (ka), a dissociation rate (kd) and an overall affinity (KD) are determined. For epitope binning, KDs are not determined.
In the first step, G1 LC 3J and 17A9 antibodies were directly immobilized onto a CM5 chip surface via Amine Coupling to achieve approximately 2000RU respectively on Fc2 and Fc3. […] The immobilized antibodies on Fc2 and Fc3 are the base antibodies in the experiment […]
The data was analyzed using the Biacore T200 Evaluation Software version 3.0.
(In general: In SPR one partner is held on a chip, and binding of the other changes the refractive index at the surface.)

Test [2] concerns the target T2, human PMEL17 (Homo sapiens, UniProt P40967).
T2 construct: G-361 melanoma cell line expresses human PMEL17 at a lower level compared to the HKB11-human PMEL17 overexpressing cell line; endogenous in cells; host or cells: G-361 (human melanoma)
T2 sequence (P40967 25-661): T1 sequence (P40967 25-661)
Put plainly: Apparent affinity by FACS titration of IgGs on G-361 melanoma cell line. In kind it is binding. Conditions: G-361, PE-labelled detection antibody; read-out: FACS EC50 (nM) G-361 (PE). The protocol: (§1) Purified IgGs were titrated on a variety of PMEL17 expressing and PMEL17 non expressing cell lines (for control) to determine EC50 values. Cells were harvested using Accutase, adjusted to ˜4×10^6 cells/ml into FACS buffer (PBS, 3% FCS and 0.02% Na-Azide) and kept on ice to avoid internalization. 15 μl of cell suspension/well were transferred into 384 well V-bottom plates (Greiner, Cat #781280) and incubated with 15 μl of IgGs at different concentrations (most commonly from 200 to 3.5×10−3 nM) for 1 hour at 4° C., gently shaking. Following incubation, cells were washed three times with FACS buffer. After each washing step, cells were centrifuged (250×g, 5 min, 4° C.) and carefully resuspended. 15 μl of detection antibody conjugated to PE (PE-conjugated goat anti-human IgG, F(ab′)2 fragment specific, 1:150 in FACS buffer; Jackson Immuno Research, #109-116-097) or Alexa Fluor (Alexa Fluor-conjugated goat anti-human IgG, F(ab′)2 fragment specific, 1:150 in FACS buffer; Jackson Immuno Research, #109-606-097) were added and samples were incubated for 45 minutes to 1 hour on ice in the dark, gently shaking. After 3 washing steps, cells were resuspended in 30 μl of FACS buffer and samples were measured using the IntelliCyt HTFC device. EC50 values were calculated using the Graphpad Prism software. G-361 melanoma cell line expresses human PMEL17 at a lower level compared to the HKB11-human PMEL17 overexpressing cell line, and therefore allows a more precise ranking of the clones depending on their apparent affinity on cells.
(§2) The cross-specificity of the IgGs was evaluated in does response FACS on G-361 (human melanoma), HKB11-cyno-PMEL17, HKB11-rat PMEL17 and B16-F10 (mouse PMEL17 expressing melanoma) (Table 3). […]

Test [3] relates to rat PMEL17. Put plainly: Apparent affinity by FACS titration of IgGs on HKB11-rat PMEL17 cells. To be noted: Alexa Fluor. Format: binding. On the procedure:
Purified IgGs were titrated on a variety of PMEL17 expressing and PMEL17 non expressing cell lines (for control) to determine EC50 values. Cells were harvested using Accutase, adjusted to ˜4×10^6 cells/ml into FACS buffer (PBS, 3% FCS and 0.02% Na-Azide) and kept on ice to avoid internalization. 15 μl of cell suspension/well were transferred into 384 well V-bottom plates (Greiner, Cat #781280) and incubated with 15 μl of IgGs at different concentrations (most commonly from 200 to 3.5×10−3 nM) for 1 hour at 4° C., gently shaking. Following incubation, cells were washed three times with FACS buffer. After each washing step, cells were centrifuged (250×g, 5 min, 4° C.) and carefully resuspended. […] After 3 washing steps, cells were resuspended in 30 μl of FACS buffer and samples were measured using the IntelliCyt HTFC device. EC50 values were calculated using the Graphpad Prism software. […]
as §2
(A flow cytometer gives signals particle by particle.)

The target in test [4] is T3, mouse PMEL17 (Mus musculus, UniProt Q60696).
T3 construct: B16-F10 (mouse PMEL17 expressing melanoma); endogenous in cells; host or cells: B16-F10 (mouse melanoma)
T3 sequence (Q60696 24-626): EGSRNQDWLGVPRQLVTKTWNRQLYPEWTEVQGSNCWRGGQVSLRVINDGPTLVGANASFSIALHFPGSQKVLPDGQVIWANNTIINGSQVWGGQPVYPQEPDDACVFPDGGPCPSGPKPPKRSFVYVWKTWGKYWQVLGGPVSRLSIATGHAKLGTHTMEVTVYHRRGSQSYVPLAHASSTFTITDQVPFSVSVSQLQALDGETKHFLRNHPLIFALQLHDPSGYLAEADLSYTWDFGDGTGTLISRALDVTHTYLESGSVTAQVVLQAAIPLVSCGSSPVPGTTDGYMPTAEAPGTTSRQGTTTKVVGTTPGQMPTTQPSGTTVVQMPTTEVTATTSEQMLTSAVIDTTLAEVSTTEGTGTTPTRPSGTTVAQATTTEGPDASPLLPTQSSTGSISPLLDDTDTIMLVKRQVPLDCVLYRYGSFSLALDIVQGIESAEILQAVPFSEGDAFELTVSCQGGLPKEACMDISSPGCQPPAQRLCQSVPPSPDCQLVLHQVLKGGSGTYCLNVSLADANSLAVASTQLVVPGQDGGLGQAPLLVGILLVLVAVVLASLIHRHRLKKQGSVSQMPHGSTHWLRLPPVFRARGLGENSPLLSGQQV
The experiment in a line: Apparent affinity by FACS titration of IgGs on B16-F10 melanoma cells. In kind it is binding. To be noted: Alexa Fluor. On the procedure: as §1
(§3) The cross-specificity of the IgGs was evaluated in does response FACS on G-361 (human melanoma), HKB11-cyno-PMEL17, HKB11-rat PMEL17 and B16-F10 (mouse PMEL17 expressing melanoma) (Table 3). Testing on G-361 was performed using a detection antibody labelled to PE. In contrast, an Alexa-Fluor labelled detection antibody had to be used for testing the candidates on the other cell lines so as to reach detectable signals.

The test system of test [5] is UACC-62. The experiment in a line: FACS titration of IgGs on UACC-62 cells. In kind it is binding. Conditions: UACC-62, PE-labelled detection antibody. On the procedure:
as §1

Test [6] deals with PMEL17. The experiment in a line: Cross-reactivity (cross-specificity profile) of anti-PMEL17 IgGs in dose response FACS. In kind it is binding. Further details: key: h/c/r/m: human/cyno/rat/mouse; h/c/r: human/cyno/rat; h/c/(m): human/cyno/mouse; h/c: human/cyno. Conditions: h human, c cyno, r rat, m mouse. The protocol: as §3
IgGs were classified into several epitope groups according to their cross-specificity profiles.

B1: G1 LC 3J: anti-PMEL antibody G1 with 3J light chain (antibody, V domains shown)
VH: QVQLVQSGAEVKKPGSSVKVSCKASGGTFSDYAITWVRQAPGQGLEWMGGIIPIFGTANYAQKFQGRVTITADESTSTAYMELSSLRSEDTAVYYCAREGGLLTDISYSRYWFAYWGQGTLVTVSS
VL: SYELTQPLSVSVALGQTARITCSGDALRDKFVYWYQQKPGQAPVLVIYDDNNRPSGIPERFSGSNSGNTATLTISRAQAGDEADYYCQSWDHSYSLVVFGGGTKLTVL
B1: the epitope binning entry in test [1] was “bind to different epitopes”.

B2: Y010417: anti-PMEL17 antibody (IgG) (antibody, V domains shown)
VH: EVQLVQSGAEVKKPGESLKISCKGSGYSFTSYWIGWVRQMPGKGLEWMGIIYPGDSDTRYSPSFQGQVTISADKSISTAYLQWSSLKASDTAMYYCARGSSAASGLSGDLWGQGTLVTVSS
VL: DIQMTQSPSSLSASVGDRVTITCRASQSISSYLNWYQQKPGKAPKLLIYAASSLQSGVPSRFSGSGSGTDFTLTISSLQPEDFATYYCQQDYYSPFTFGQGTKVEIK
In the case of B2, the EC50 in test [2] is 2.8 nM; in test [3], > 100 nM; in test [4], > 100 nM. The “UACC-62 (PE)” value in test [5] is given as “Negative”. Also, the “Cross spe profile (based on C14 detection ab)” value in test [6] was “h/c”.
